The supplement of paper PMC9732359
± gives the uncertainty stated by the source.

Test: protein stability index of a GFP-peptide fusion (yeast GPS) (PSI 1-4); higher = more stable; sorted into four equal gates, so the index is relative within each strain
In short: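 Plasmids in a pooled yeast library fused tiled 17-residue yeast protein peptides downstream of GFP and also expressed Cherry. Mid-log cultures grown without leucine were sorted into four equal gates by GFP/Cherry fluorescence ratio. Each gate's plasmids were PCR-amplified and Illumina-sequenced, and reads were matched to strains by barcodes. The protein stability index is derived by multiplying each gate's read frequency by its gate number and summing the results.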

| Sequence | protein stability index (doa10∆) | protein stability index (pdr5∆) | protein stability index (san1∆) | protein stability index (ubr1∆) |
| --- | --- | --- | --- | --- |
| PTTVSYIFCISRTIGMV [SCL1] | 1.99 ± 0.039 | 1.97 ± 0.051 | 2.88 ± 0.036 | 1.95 ± 0.039 |
| AKICALLFFNFSHSLTT [NUT1] | 1.43 ± 0.045 | 1.45 ± 0.036 | 1.4 ± 0.051 | 1.27 ± 0.026 |
| NGTMINEVIDKLKNENT [PCI8] | 2.84 ± 0.056 | 2.91 ± 0.052 | 2.84 ± 0.047 | 3.09 ± 0.037 |
| DFLRYINIKYLRLDGHT [SNF2] | 2.5 ± 0.071 | 1.32 ± 0.062 | 1.4 ± 0.14 | 1.65 ± 0.06 |
| LGILKKKRFDEFMAGFN [SMC4] | 2.15 ± 0.11 | 2.15 ± 0.13 | 1.88 ± 0.19 | 1.87 ± 0.078 |
| EQEIENNGLPMKNKAET [ITC1] | 2.81 ± 0.065 | 3.06 ± 0.066 | 3 ± 0.045 | 2.9 ± 0.067 |
| KKTRIIPRHLQLAIRND [HTA1] | 2.47 ± 0.088 | 2.69 ± 0.078 | 3.03 ± 0.11 | 2.05 ± 0.081 |
| LHEKYLTEGGSILEEKI [SMC1] | 3.02 ± 0.077 | 3.24 ± 0.1 | 3.01 ± 0.061 | 3.19 ± 0.094 |
| LIYVNPFMLQWGIPLIK [FAS1] | 1.45 ± 0.082 | 1.4 ± 0.099 | 1.13 ± 0.14 | 1.65 ± 0.064 |
| QSESRQKRQLHDISKTE [SNU114] | 3 ± 0.096 | 2.87 ± 0.071 | 3.13 ± 0.073 | 3.04 ± 0.046 |
| GQLEDFDSELIHLKQKL [SMC3] |  | 2.89 ± 0.16 | 3.23 ± 0.15 | 2.95 ± 0.17 |
| QWYTLQSQLNVTLSQLV [MED8] | 1.54 ± 0.034 | 2.15 ± 0.032 | 1.85 ± 0.075 | 1.67 ± 0.032 |
| RKQRVKKKTKKELELER [SWI1] | 2.69 ± 0.13 | 2.96 ± 0.13 | 3.56 ± 0.12 | 2.2 ± 0.13 |
| IINSTALMKEKDIRSTL [RPC82] | 3.12 ± 0.19 | 3 ± 0.099 | 2.97 ± 0.093 | 3.25 ± 0.09 |
| QPWQMDTNNEADLMALE [SNF12] | 2.59 ± 0.068 | 3.25 ± 0.076 | 2.86 ± 0.054 | 3.2 ± 0.036 |
| KEKLTVQDCRYSLASVT [POP1] | 2.69 ± 0.039 | 2.62 ± 0.043 | 2.35 ± 0.043 | 2.46 ± 0.035 |
| SYKDSGLWGFSTATRNV [COR1] | 2.98 ± 0.086 | 3.11 ± 0.094 | 3.19 ± 0.064 | 3.16 ± 0.084 |
| NLYDDVKCWSKFIEKFQ [MED1] |  | 3.07 ± 0.11 | 3.27 ± 0.14 | 3.58 ± 0.29 |
| MQLEEELMKLDGTEYVL [MED6] | 3.26 ± 0.15 | 3.4 ± 0.11 | 3.21 ± 0.091 | 3.26 ± 0.076 |
| SRKRAKKMTKKAKRSNL [PRP8] | 2.94 ± 0.07 | 2.16 ± 0.069 | 2.11 ± 0.094 | 2.52 ± 0.082 |
| KSLKNNFYRPLLRSVLV [YML103C/NUP188] | 1.94 ± 0.051 | 1.87 ± 0.075 | 2.04 ± 0.085 | 2.29 ± 0.051 |
| ESKPFSSDALSKEKANF [SIR4] | 1.96 ± 0.068 | 1.59 ± 0.065 | 1.73 ± 0.089 | 1.39 ± 0.056 |
| IKGQCLATLLGHNDWVS [ASC1] | 1.37 ± 0.083 | 1.69 ± 0.083 | 1.72 ± 0.11 | 1.65 ± 0.066 |
| SVAEVFQKAQGSYAGHR [YCG1] | 1.9 ± 0.11 | 1.38 ± 0.18 | 1.65 ± 0.24 | 1.5 ± 0.072 |
| HENYIQDDDFPLDDAGT [MCD1] | 2.95 ± 0.054 | 2.98 ± 0.051 | 2.99 ± 0.041 | 3 ± 0.046 |
| ENSYLRGLTPQEFFFHA [RPO21] | 2.49 ± 0.046 | 2.64 ± 0.046 | 2.45 ± 0.062 | 2.64 ± 0.047 |
| STVSANHSNNDIPTIAD [BRN1] | 3.22 ± 0.097 | 3.03 ± 0.093 | 3.02 ± 0.069 | 3.24 ± 0.074 |

| Sequence | protein stability index (doa10∆) | protein stability index (pdr5∆) | protein stability index (san1∆) | protein stability index (ubr1∆) |
| --- | --- | --- | --- | --- |
| NYIINDIKKNNKIKLNI [SRB8] | 3.16 ± 0.096 | 3.1 ± 0.16 | 3.04 ± 0.2 | 3.35 ± 0.2 |
| TITIKSYHLWPSFTDEQ [PRP8] | 2.32 ± 0.057 | 2.81 ± 0.061 | 2.41 ± 0.073 | 2.51 ± 0.047 |
| LGKTIQTISLLTYLYEM [SNF2] | 1.72 ± 0.093 | 2.5 ± 0.087 | 2.47 ± 0.081 | 2.38 ± 0.076 |
| LPKVRIRTRRAAELLDK [DIS3] | 1.78 ± 0.096 | 1.48 ± 0.088 | 1.3 ± 0.17 | 1.28 ± 0.072 |
| THTEQNNPPKPQKPVPL [SNF2] | 2.88 ± 0.08 | 3.34 ± 0.094 | 3.12 ± 0.049 | 3.15 ± 0.057 |
| FDEGTTLLSPKDNGMLI [RPO21] | 2.7 ± 0.066 | 2.45 ± 0.067 | 2.91 ± 0.061 | 1.96 ± 0.065 |
| IILGTNLYDGAEHKYMP [BRR2] | 3.06 ± 0.12 | 3.47 ± 0.096 | 3.6 ± 0.087 | 3.27 ± 0.1 |
| HIKEASEEVDDLSMVPK [SNF2] | 3.27 ± 0.11 | 3.24 ± 0.25 | 3.13 ± 0.1 | 3.6 ± 0.16 |
| PKNIEPPLTSQYSTRHD [SWI3] | 3.07 ± 0.048 | 3.02 ± 0.059 | 3.04 ± 0.041 | 3.03 ± 0.042 |
| ELHKEGTISKLENKENG [SMC2] | 2.01 ± 0.12 | 2.61 ± 0.097 | 1.4 ± 0.076 | 1.62 ± 0.075 |
| EQSELLKAQITSLKCLV [SNF2] | 1.92 ± 0.049 | 1.83 ± 0.048 | 2.16 ± 0.074 | 1.99 ± 0.042 |
| TNQIFQSRRYNLRRHSD [SIN4] | 2.94 ± 0.045 | 3.18 ± 0.04 | 3.04 ± 0.045 | 3.08 ± 0.031 |
| GSVMSASVEIVFHDPDH [SMC3] | 2.12 ± 0.091 | 2.53 ± 0.071 | 2.4 ± 0.084 | 2.55 ± 0.061 |
| KTKLWGFKWLNKLDEYH [LIN1] |  |  |  | 3.22 ± 0.2 |
| LGKAQNWAKFTATASLG [RPN2] | 2.55 ± 0.059 | 2.56 ± 0.059 | 2.18 ± 0.069 | 2.28 ± 0.065 |
| QMMQQAQQKLKQNPGLM [SRP54] | 2.83 ± 0.08 | 3.07 ± 0.082 | 3.12 ± 0.055 | 3.119 ± 0.031 |
| MNIKPVQKQTRAGQRTR [RPS2] | 2.67 ± 0.1 | 2.81 ± 0.11 | 1.92 ± 0.089 | 2.58 ± 0.073 |
| NDFFPGEVVYLRKQKDS [ITC1] | 2.03 ± 0.062 | 1.39 ± 0.059 | 1.35 ± 0.12 | 1.48 ± 0.081 |
| EFFNPEIFHLLQPLEEG [SIN4] | 1.88 ± 0.079 | 1.84 ± 0.064 | 1.59 ± 0.086 | 2.07 ± 0.056 |
| MTTEDPDSNHLSSETGI [SRB4] | 3.15 ± 0.12 | 2.85 ± 0.2 | 3.37 ± 0.076 | 3.04 ± 0.081 |
| KREESESAAVYNGRGAR [SNF2] | 3.09 ± 0.17 | 3.02 ± 0.091 | 3.35 ± 0.057 | 3.49 ± 0.085 |
| MIELICSSATVPKHMLD [AAR2] | 1.85 ± 0.082 | 2.26 ± 0.078 | 1.82 ± 0.11 | 1.94 ± 0.058 |
| KQNPGLMQNMMNMFGGG [SRP54] | 2.05 ± 0.086 | 2.36 ± 0.049 | 2.37 ± 0.088 | 1.8 ± 0.042 |
| PEILRFKVYEPLLLVGL [RPS16A] | 2.01 ± 0.12 | 2.31 ± 0.098 | 2.1 ± 0.18 | 2.65 ± 0.068 |
| AASALDEKEKQLAVANE [SIR4] | 2.92 ± 0.081 | 3.28 ± 0.072 | 3.3 ± 0.055 | 3.36 ± 0.073 |
| DELILPLPSHALTVQEV [YDL116W/NUP84] | 2.4 ± 0.038 | 2.56 ± 0.036 | 2.15 ± 0.057 | 2.44 ± 0.025 |
| KKAVKELYEVDVLKVNT [RPL25] | 3.01 ± 0.069 | 3.09 ± 0.073 | 3.1 ± 0.037 | 3.13 ± 0.049 |
